Target: TNF (UniProt P01375)
Test: cell-based or functional assay

Sequence of UniProt P01375 (P01375 77-233 limits assumed): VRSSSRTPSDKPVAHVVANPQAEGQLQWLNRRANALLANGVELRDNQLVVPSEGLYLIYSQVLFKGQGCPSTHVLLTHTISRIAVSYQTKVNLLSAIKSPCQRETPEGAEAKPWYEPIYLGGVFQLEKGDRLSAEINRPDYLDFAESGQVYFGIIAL

- In vitro TNF neutralization test; with 0.1% polysorbate 80; fast thaw -80° C. in water bath: 95.8
- In vitro TNF neutralization test; with 0.1% polysorbate 80; no freeze/thaw: 112
- In vitro TNF neutralization test; with 0.1% polysorbate 80; slow thaw -30° C. in refrigerator: 96.2
- In vitro TNF neutralization test; with 0.1% polysorbate 80; slow thaw -80° in refrigerator: 96.7
- In vitro TNF neutralization test; without 0.1% polysorbate 80; fast thaw -30° C. in water bath: 118
- In vitro TNF neutralization test; without 0.1% polysorbate 80; fast thaw -80° C. in water bath: 120
- In vitro TNF neutralization test; without 0.1% polysorbate 80; no freeze/thaw: 118
- In vitro TNF neutralization test; without 0.1% polysorbate 80; slow thaw -30° C. in refrigerator: 124
- In vitro TNF neutralization test; without 0.1% polysorbate 80; slow thaw -80° in refrigerator: 103
Substance: D2E7 antibody

— patent US20040033228A1
